In a protein production outcome set (Wang et al. 2014):
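Further: failed if final PepcDB status was selected cloned or expressed and not failed if soluble or beyond.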

Assay: label from the status in PepcDB records
For “MILSLNLLHKISPKLKKIPLNELCAALMDLGCEVETINSIKPSTNLVFAKVLEKTRHPNANHLNLVKVKANQKVYEIVCGANNFSVHNWVVLAKLNAELANGLKITPRELRGYVSNGMLCAYSEINPQATSFLTSTDLDGILVLDDNYDHYKTPNQIFNLDDVILDLSIPSNRNDLNGYFWIAKELCAYFDFEYVVDATINHRPHKEIIDVRILSDDVNSYGIIEVKNIQNYILKWNTKSILINNQIKVLNNFADNMNFLTLLTANPLHAFDARKISGQIVVKNAEEDAILLGLDQKEYLIKKGDLIIVDDQKILALAGIIGSNDSKIDATSTTAYIECANFNPMLIANTARRLKINTAAAMRFSKPLTNYVTKVTLKKLLANFKSDAKLIYYFKHSVHNVIKNKINQVSDFVGAEIDLDTAQTFLKRLGYKINKSNLITPSHRYDVLNEFDVYEDIMKKISIQEIKPQPISFDILNFENNLAYDFEKKVSDFLVDQGLFECKTYNLKNQTQAHEFNFFNFKQAYEINNPTSNMRSHLKLNNLNSLLEVLEYNQNQKNELENIFEISKINPVDSSQQTVLSIILCKPLINSKINDSLIVNNFVTTKALLHALLTKLNIDYAYDKNHVVNELYDNNQLALINANKQVFGFIGQLKNQVKKTYGLSNDIFIINLNLTSYLNQKQVITKVIKPSMYHDVIRDISVKLASDVDLNNIIANIKKIKNIRKVEISDLYIKDDGIIYTFKYYINDHLSNLSSEQIIIIEQEVNNYLKQF”, the protein production was “failed”.
In the case of “MILSNYFKFLSHQLKGWPQQNYYLFYFSLGCQVMTLVSAPITALSILTFIGTTLGVLCVLAINAAKSVNGLLGVISAACFIVVGFSAKNYLSIGEQLAYVVTLDIPVLLSANWNVNMVSKIRKFTGKTWIVAIVATLVVYAISGYLIGALTDDPRPWVDAISFAICLTAGVICFLRYNNQYFWWIASGLAQMVLWFISFRQGSATLAMFINSSVYLMNDVLAFTVSPWYNKHERARLMAEEQAASDAASADASDNQAFGLNH”, the protein production is reported as “failed”.
With “MILTVGNTKGGVGKTTLAVNLAVERFLAGKDVLLIDADNQRTSSAFSALRESLHGQTGYTCIELSGSAVHQQGRNLAPKYDEVIIDVGGRDTSALRGALAISDIALVPFAVGTFDIWAAEDIGRLIEEARGFNPTLRAFSVLNMADPAGGDNADAAGLLTETSALVYLRASLVRRKAMRNAAAAGLGVLEMTGSSRDSKACGEVGYLAELLYNKLNLEHHHHHH” the protein production was “failed”.
In the case of “MILVSLVVVLFLVLLNGVFSMSELAVVSARKARLQGFAERGDRGAKLALEMSEHPTRFLSAVQVGITLIGIFAGAYGQATIAAALDAWLEASVPALAKYSEAIATTLVVIGLTYVSVILGELVPKRLALIFPDAIARRMAPFLAVVATVLRPFVTLLTVSTAAVLRLMGVRDERNTSVTSEEVEAVLAEGADAGLIEPEERSMIQEVLRLGDRPVRVAMTPRRDLFWVSLADDTETVLKEIRASAHSRIVVATEGDLDGDVGVLLKKDLLDACLSGEPLDLKAHVQQPLAIPETMSLLKALQLFKSTSLHMALVVDEFGSLQGAITPLDLLEMIAGDFPEDHDDDEKRIIRREDGGWLIDARLDIQELNDHLGENFEADGGYHTVAGLILDRLGRLPTEGEHVEIGGFDLEIVDMDGSRIDKVILKPSKRRKEGQEG”, the protein production is reported as “failed”.
In the case of “MILYVFLFFVGLLLLYLGAEGLIQGASSIALQYGIRPVILGLTVVALGTSMPEYLVNVFALISGESPLAIGNIIGSNISNVALILGACAVVLPLAVTPEVLRREYPVMLGVMVLFYLCALDGVIGARDGVLMVVLLSGLAAYVFYDAHRTTRGTVLESMEGELDAADPDLSTLAKAVYVIGGMGGLTLGAHLMVDNALAISDVLNIDHVVIGLTVVAIGTSLPELAASMVGTLKQEVDMTVGNVIGSNLLNVLFVVGTLAIAEPITVDPETIRLHFPVMLGFCALLVPLTWWDQKITRVEGAFMVIAFLGFMVFLYV”, the protein production is reported as “failed”.
In the case of “MIMEHEYRLEVRGYELDSFGHVNNAVYLNYLEAARWDLCSKLNLTDYNESNELFIVVIETNIKYIRELKLFDKVLIKTELTYEDDYLIFKHNIYNEVTKRKASVAKSKMVLVSKQRIIYEIPQFIKDKLDICAYGLEHHHHHH”, the protein production is reported as “failed”.
With “MIMTSDIKLLDYLRVRRSTPALQLSEPGPSKGEIEEILRLAVRVPDHGKLAPWRFVVYRGEERVRLSEAALRIALEKNPDLDLQQQEAERTRFTRAPVVIAVISTAKPHFKIPEWEQVMSAGAVCLNVIFAANASGFAANWLTEWLAFDPAFLAEIGVSAEEKVAGYIHIGSTTFPPVERPRPELADVVTWVGDV” the protein production was “not failed”.
With “MINDIILLLFVKIKRRLMMDKLFKLKENGTDVRTEVLAGLTTFFAMSYILFVNPQILSQTGMPAQGVFLATIIGAVAGTLMMAFYANLPYAQAPGMGLNAFFTFTVVFGLGYSWQEALAMVFICGIISLIITLTNVRKMIIESIPNALRSAISAGIGVFLAYVGIKNAGLLKFTIDPGNYTVVGEGADKAQATIAANSSAVPGLVSFNNPAVLVALAGLAITIFFVIKGIKGGIILSILTTTVLAIAVGLVDLSSIDFANNHVGAAFEDLKTIFGAALGSEGLGALVSDTARLPETLMAILAFSLTDIFDTIGTLIGTGEKVGIVATNGENHQSAKLDKALYSDLIGTTVGAIAGTSNVTTYVESAAGIGAGGRTGLTALVVAICFAISSFFSPLLAIVPTAATAPILIIVGIMMLGSLKNIHWDDMSEAVPAFFTSIFMGFSYSITQGIAVGFLTYTLTKLVKGQVKDVHVMIWILDALFILNYISMAL” the protein production was “failed”.
For “MINFFDLFLSDFLTSLRLFCKVWDEQTTLQALLEHVRAIPGHCQKKILTKLLVTDIWDKEDTKLLAALKHIDVRPTRVACRPSLQVLGLYNDVVTVFQTHGMGWYREIDEDVYPKLVKEFIATCRLTYANPENPKASQGTLTFFLNKKHYNKTMFEIYDMYGFTKGEAVEFSKLSPTHITSLLSTTNPVFEHNEQYLVPDPSKTVPRRRRTAEAQPTDEHVISNDEIYEDYAYPTSLAHAQPYLLLPEDPTPYRVSPPPAGDDISQQMAWMIALTRKNNSMMHKMWRAISRIRPCVCTRRGGVDDANRENQSKTIEDRHAERLVPAAGPSGASTSQPPPEHSQAVA”, the protein production was “not failed”.
In the case of “MINHKIFPTADAVVKSLADDMLAYSQQGQPVHISLSGGSTPKMLFKLLASQPYANDIQWKNLHFWWGDERCVAPDDAESNYGEANALLFSKINMPAQNIHRILGENEPQAEAERFAQAMAHVIPTENGTPVFDWILLGVGADGHTASLFPGQTDYADANLSVVASHPESGQLRVSKTAKVLQAAKRISYLVLGAGKAEIVEQIHTTPAEQLPYPAAKIHSTSGVTEWYLDSDAAAKIA”, the protein production is reported as “not failed”.
For “MINKPNQFVNHLSALKKHFASYKELREAFNDYHKHNGDELTTFFLHQFDKVMELVKQKDFKTAQSRCEEELAAPYLPKPLVSFFQSLLQLVNHDLLEQQNAALASLPAAKIIELVLQDYPNKLNMIHYLLPKTKAFVKPHLLQRLQFVLTDSELLELKRFSFFQALNQIPGFQGEQVEYFNSKLKQKFTLTLGEFEIAQQPDAKAYFEQLITQIQQLFLKEPVNAEFANEIIDAFLVSYFPLHPPVPLAQLAAKIYEYVSQIVLNEAVNLKDELIKLIVHTLYEQLDRPVGDEN”, the protein production was “not failed”.
With “MINKTLLQKRFNGAAVSYDRYANVQKKMAHSLLSILKERYSETASIRILELGCGTGYVTEQLSKLFPKSHITAVDFAESMIAIAQTRQNVKNVTFHCEDIERLRLEESYDVIISNATFQWLNNLQQVLRNLFQHLSIDGILLFSTFGHETFQELHASFQRAKEERNIKNETSIGQRFYSKDQLLHICKIETGDVHVSETCYIESFTEVKEFLHSIRKVGATNSNEGSYCQSPSLFRAMLRIYERDFTGNEGIMATYHALFIHITKEGKR” the protein production was “failed”.
In the case of “MINLWPLLLPAAAWSGWWLANRSNSNKDAHVHNRLSREYVVGLNYLLNEQSDKAVDVFIKLLEVDSDTVETHLALGSLFRRRGEVDRAIRIHQNLIARPQLSIQQRKEALMALGQDYMSAGVFDRAERIFLEVVELGGSRDTSSLQGLLAIYQQEKAWEKALDIIKKLEISTGASFHNQAAHYYCEMASQALKINAMDRAIYCIKQAMNVDPESVRASLMNATIEIKEGRYKQAIRSLKRVPQQDAEFLTEIIEPLVLCHKELDSMPDCIHYLEQTLEKHPRASVIFVIADYLRQNKGMDIAIDFVADNLSKHPSIRGLNRLIYWHLESAHGKVREKLQMLYDITSKFLDNKPIYRCGHCGFGGKHLHWHCPSCKQWGRMKPIHGLEGD”, the protein production is reported as “failed”.
